Assay results from patent WO2010047829A1.

Molecular target: E1E2 (isolate H77), produced by transfected 293T cells (hepatitis C virus isolate H77 (genotype 1a)) (UniProt P27958)
Test: cell-based or functional assay

| Substance | IC50 titer, neutralization of HCVpp-H77 |
| --- | --- |
| MAb AR3A (antibody) | 0.4 µg/mL |
| MAb AR3B (antibody) | 1 µg/mL |
